From the supplement of paper PMC9112550, “Optimization of the antimicrobial peptide Bac7 by deep mutational scanning” (BMC Biology, 2022)

Each sequence was assayed on Escherichia coli TOP10 (assay: shrunken log2 fold change of peptide-encoding DNA abundance (4.5 h post-induction vs induction); higher = less antimicrobial activity (less host growth inhibition)). Details: time post-induction: 4.5 h; library: site-saturation at positions 5, 18, 19, 20.
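Note: peptides expressed intracellularly from a pBAD plasmid library in pooled LB shake-flask culture, induced with 0.3% L-arabinose, DNA abundance read by NGS, three biological replicates, DESeq2 with apeglm shrinkage.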

Sequence	shrunken log2 fold change
RRIRRRPPRLPRPRPRPGVMPRP	0.245
RRIRIRPPRLPRPRPRPMGDPRP	-0.114
RRIRQRPPRLPRPRPRPPCYPRP	-0.0902
RRIRARPPRLPRPRPRPYHCPRP	-0.0366
RRIRLRPPRLPRPRPRPGDFPRP	0.017
RRIRGRPPRLPRPRPRPMEAPRP	1.27
RRIRERPPRLPRPRPRPSLLPRP	-0.208
RRIRIRPPRLPRPRPRPMNAPRP	-0.0262
RRIRNRPPRLPRPRPRPIPFPRP	-0.0196
RRIRWRPPRLPRPRPRPHICPRP	0.00277
RRIRCRPPRLPRPRPRPRKGPRP	0.201
RRIRLRPPRLPRPRPRPPVMPRP	0.154
RRIRLRPPRLPRPRPRPFKRPRP	-0.09
RRIRMRPPRLPRPRPRPWNFPRP	-0.0756
RRIRFRPPRLPRPRPRPFECPRP	-0.0767
RRIRERPPRLPRPRPRPSCRPRP	-0.249
RRIRDRPPRLPRPRPRPVCTPRP	0.0514
RRIRKRPPRLPRPRPRPKVKPRP	0.116
RRIRDRPPRLPRPRPRPTNEPRP	0.265
RRIRIRPPRLPRPRPRPLNHPRP	-0.458
RRIRARPPRLPRPRPRPFELPRP	-0.146
RRIRPRPPRLPRPRPRPFVCPRP	-0.395
RRIRTRPPRLPRPRPRPSTLPRP	-0.853
RRIRLRPPRLPRPRPRPEHPPRP	-0.00635
RRIRHRPPRLPRPRPRPNKVPRP	-0.238

Sequence	shrunken log2 fold change
RRIRYRPPRLPRPRPRPSPWPRP	-0.513
RRIRIRPPRLPRPRPRPRGHPRP	-0.114
RRIRMRPPRLPRPRPRPTPKPRP	0.107
RRIRWRPPRLPRPRPRPRFGPRP	0.395
RRIRWRPPRLPRPRPRPRGEPRP	0.397
RRIRNRPPRLPRPRPRPCKPPRP	-0.0414
RRIRARPPRLPRPRPRPRLTPRP	1.58
RRIRSRPPRLPRPRPRPLGVPRP	0.0588
RRIRNRPPRLPRPRPRPKSIPRP	-0.569
RRIRVRPPRLPRPRPRPRWSPRP	0.209
RRIRVRPPRLPRPRPRPVEDPRP	-0.378
RRIRARPPRLPRPRPRPLKSPRP	0.012
RRIRQRPPRLPRPRPRPRMQPRP	-0.0113
RRIRLRPPRLPRPRPRPWILPRP	-0.0709
RRIRCRPPRLPRPRPRPPNGPRP	-0.0741
RRIRRRPPRLPRPRPRPTEWPRP	0.446
RRIRPRPPRLPRPRPRPACFPRP	0.45
RRIRSRPPRLPRPRPRPNMDPRP	-0.184
RRIRFRPPRLPRPRPRPEIQPRP	0.0158
RRIRSRPPRLPRPRPRPFPSPRP	-0.168
RRIRFRPPRLPRPRPRPRMHPRP	-0.0776
RRIRIRPPRLPRPRPRPGDHPRP	0.14
RRIRIRPPRLPRPRPRPVMDPRP	-0.184
RRIRCRPPRLPRPRPRPDLIPRP	-0.109
RRIRGRPPRLPRPRPRPRCHPRP	0.564

Sequence	shrunken log2 fold change
RRIRQRPPRLPRPRPRPGVWPRP	0.611
RRIRFRPPRLPRPRPRPPNSPRP	-0.544
RRIRYRPPRLPRPRPRPMWLPRP	-0.224
RRIRERPPRLPRPRPRPEYGPRP	-0.315
RRIRYRPPRLPRPRPRPWWLPRP	-0.0627
RRIRTRPPRLPRPRPRPQEFPRP	0.0555
RRIRIRPPRLPRPRPRPSHSPRP	-1.02
RRIRHRPPRLPRPRPRPQIDPRP	-0.123
RRIRHRPPRLPRPRPRPCMCPRP	-0.245
RRIRVRPPRLPRPRPRPYSGPRP	-0.00858
RRIRVRPPRLPRPRPRPYNTPRP	-0.326
RRIRDRPPRLPRPRPRPSDIPRP	-0.0124
RRIRRRPPRLPRPRPRPGGTPRP	0.245
RRIRVRPPRLPRPRPRPKCLPRP	0.127
RRIRKRPPRLPRPRPRPQFQPRP	-0.0733
RRIRFRPPRLPRPRPRPKLSPRP	-0.258
RRIRLRPPRLPRPRPRPWNWPRP	0.0524
RRIRMRPPRLPRPRPRPNYTPRP	-0.434
RRIRQRPPRLPRPRPRPWLWPRP	0.145
RRIRNRPPRLPRPRPRPMVKPRP	-0.00408
RRIRVRPPRLPRPRPRPATPPRP	0.35
RRIRKRPPRLPRPRPRPGWFPRP	0.139
RRIRIRPPRLPRPRPRPQMFPRP	-0.65
RRIRYRPPRLPRPRPRPVTTPRP	-0.209
RRIRPRPPRLPRPRPRPGEIPRP	0.21
